In PMC9082959, “Mechanism of Assembly of the Non-Covalent Spectrin Tetramerization Domain from Intrinsically Disordered Partners” (Journal of molecular biology, 2013) one finds Ka data, which are given here for 20 molecules.

Changes are numbered by the printed parent chain. Names may count otherwise.

Assay [1] addresses T1, β16β17 (erythrocyte β-spectrin residues 1898–2083), wild type (human, UniProt P11277 1898-2083).
T1 construct: erythrocyte β-spectrin, human, residues 1898-2083 (β16 plus the incomplete 17th domain); synthetic gene (GenScript) in a modified pRSETA plasmid; source: E. coli C41(DE3), purified (Ni2+ agarose, thrombin cleavage, gel filtration)
T1 sequence (looked up): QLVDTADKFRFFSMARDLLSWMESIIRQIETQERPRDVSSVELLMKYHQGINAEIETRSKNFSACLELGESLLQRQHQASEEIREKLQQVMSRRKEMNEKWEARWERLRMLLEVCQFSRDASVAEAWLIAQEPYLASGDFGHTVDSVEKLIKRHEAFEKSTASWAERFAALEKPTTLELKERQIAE
The experiment in a line: ITC; β16β17 at 25–50 μM in the cell titrated with 15–20 injections to 2–2.5 eq of α0α1; one-site binding model; PBS (50 mM sodium phosphate, 150 mM NaCl, pH 7.04), 25 °C; mutants only against the wild-type partner. As to conditions: both partners purified. (ITC needs no label: the signal is the heat of the interaction.)

Assay [2] deals with T1, β16β17 (erythrocyte β-spectrin residues …). Described as above. The settings on record: both partners purified. The source holds these as a separate data set.

B1: α0α1 E85A (domain or fragment, human, UniProt P02549 2-163, looked up)
chain: EQFPKETVVESSGPKVLETAEEIQARRQEVLTRYQSFKERVAERGQKLEDSYHLQVFKRDADDLGKWIMEKVNILTDKSYEDPTNIQGKYQKHQSLEAEVQTKSRLMSELEKTREERFTMGHSAHEETKAHIEELRHLWDLLLELTLEKGDQLLRALKFQQY
notes: mutant of m1; also called E26A; source: E. coli C41(DE3), purified (Ni2+ agarose, thrombin cleavage, gel filtration)
In the case of B1, the Ka in assay [1] is 1.2e+06 M⁻¹.

B2: α0α1 V101A (domain or fragment, human, UniProt P02549 2-163, looked up)
chain: B1 chain with A25E, V41A
notes: mutant of m1; also called V42A; source: E. coli C41(DE3), purified (Ni2+ agarose, thrombin cleavage, gel filtration)
The molecule B2 had a Ka in assay [2] of 100000 M⁻¹.

B3: α0α1 R104A (domain or fragment, human, UniProt P02549 2-163, looked up)
chain: B1 chain with A25E, R44A
notes: mutant of m1; also called R45A; source: E. coli C41(DE3), purified (Ni2+ agarose, thrombin cleavage, gel filtration)
For the molecule B3, the Ka in assay [2] came out at 6.7e+06 M⁻¹.

B4: α0α1 Q88A (domain or fragment, human, UniProt P02549 2-163, looked up)
chain: B1 chain with A25E, Q28A
notes: mutant of m1; also called Q29A; source: E. coli C41(DE3), purified (Ni2+ agarose, thrombin cleavage, gel filtration)
As for B4, in assay [2], the Ka stood at 1e+06 M⁻¹.

B5: α0α1 Q95G (domain or fragment, human, UniProt P02549 2-163, looked up)
chain: B1 chain with A25E, Q35G
notes: mutant of m1; also called Q36G; source: E. coli C41(DE3), purified (Ni2+ agarose, thrombin cleavage, gel filtration)
The molecule B5 showed a Ka in assay [1] of 2e+06 M⁻¹.

B6: α0α1 E85G (domain or fragment, human, UniProt P02549 2-163, looked up)
chain: B1 chain with A25G
notes: mutant of m1; also called E26G; source: E. coli C41(DE3), purified (Ni2+ agarose, thrombin cleavage, gel filtration)
In assay [1], B6 came in with a Ka of 830000 M⁻¹.

B7: α0α1 E99A (domain or fragment, human, UniProt P02549 2-163, looked up)
chain: B1 chain with A25E, E39A
notes: mutant of m1; also called E40A; source: E. coli C41(DE3), purified (Ni2+ agarose, thrombin cleavage, gel filtration)
Turning to B7, in assay [1], the Ka was found to be 900000 M⁻¹.

B8: α0α1 Q95A (domain or fragment, human, UniProt P02549 2-163, looked up)
chain: B1 chain with A25E, Q35A
notes: mutant of m1; also called Q36A; source: E. coli C41(DE3), purified (Ni2+ agarose, thrombin cleavage, gel filtration)
In turn, B8 came in with a Ka in assay [1] of 2.29e+06 M⁻¹.

B9: α0α1 Y94A (domain or fragment, human, UniProt P02549 2-163, looked up)
chain: B1 chain with A25E, Y34A
notes: mutant of m1; also called Y35A; source: E. coli C41(DE3), purified (Ni2+ agarose, thrombin cleavage, gel filtration)
B9 registered a Ka in assay [2] of 670000 M⁻¹.

B10: α0α1 E103A (domain or fragment, human, UniProt P02549 2-163, looked up)
chain: B1 chain with A25E, E43A
notes: mutant of m1; also called E44A; source: E. coli C41(DE3), purified (Ni2+ agarose, thrombin cleavage, gel filtration)
Take B10: the Ka in assay [1] is 810000 M⁻¹.

B11: α0α1 T92G (domain or fragment, human, UniProt P02549 2-163, looked up)
chain: B1 chain with A25E, T32G
notes: mutant of m1; also called T33G; source: E. coli C41(DE3), purified (Ni2+ agarose, thrombin cleavage, gel filtration)
In assay [1], B11 returned a Ka of 3.3e+06 M⁻¹.

B12: α0α1 R87G (domain or fragment, human, UniProt P02549 2-163, looked up)
chain: B1 chain with A25E, R27G
notes: mutant of m1; also called R28G; source: E. coli C41(DE3), purified (Ni2+ agarose, thrombin cleavage, gel filtration)
Regarding B12, the Ka in assay [1] amounted to 4e+06 M⁻¹.

B13: α0α1 F97A (domain or fragment, human, UniProt P02549 2-163, looked up)
chain: B1 chain with A25E, F37A
notes: mutant of m1; also called F38A; source: E. coli C41(DE3), purified (Ni2+ agarose, thrombin cleavage, gel filtration)
In assay [2], B13 showed a Ka of 58000 M⁻¹.

B14: α0α1 E103G (domain or fragment, human, UniProt P02549 2-163, looked up)
chain: B1 chain with A25E, E43G
notes: mutant of m1; also called E44G; source: E. coli C41(DE3), purified (Ni2+ agarose, thrombin cleavage, gel filtration)
For B14, in assay [1], the Ka worked out at 220000 M⁻¹.

B15: α0α1 Y94L (domain or fragment, human, UniProt P02549 2-163, looked up)
chain: B1 chain with A25E, Y34L
notes: mutant of m1; also called Y35L; source: E. coli C41(DE3), purified (Ni2+ agarose, thrombin cleavage, gel filtration)
With B15, in assay [2], the Ka amounted to 4.4e+06 M⁻¹.

B16: α0α1 E99G (domain or fragment, human, UniProt P02549 2-163, looked up)
chain: B1 chain with A25E, E39G
notes: mutant of m1; also called E40G; source: E. coli C41(DE3), purified (Ni2+ agarose, thrombin cleavage, gel filtration)
B16 registered a Ka in assay [1] of 800000 M⁻¹.

B17: α0α1 Q106G (domain or fragment, human, UniProt P02549 2-163, looked up)
chain: B1 chain with A25E, Q46G
notes: mutant of m1; also called Q47G; source: E. coli C41(DE3), purified (Ni2+ agarose, thrombin cleavage, gel filtration)
On to B17, for which the Ka in assay [1] amounted to 200000 M⁻¹.

B18: α0α1 L91A (domain or fragment, human, UniProt P02549 2-163, looked up)
chain: B1 chain with A25E, L31A
notes: mutant of m1; also called L32A; source: E. coli C41(DE3), purified (Ni2+ agarose, thrombin cleavage, gel filtration)
B18 returned a Ka in assay [2] of 1.3e+06 M⁻¹.

B19: α0α1 T92A (domain or fragment, human, UniProt P02549 2-163, looked up)
chain: B1 chain with A25E, T32A
notes: mutant of m1; also called T33A; source: E. coli C41(DE3), purified (Ni2+ agarose, thrombin cleavage, gel filtration)
For B19, the Ka in assay [1] was found to be 670000 M⁻¹.

B20: α0α1 Q106A (domain or fragment, human, UniProt P02549 2-163, looked up)
chain: B1 chain with A25E, Q46A
notes: mutant of m1; also called Q47A; source: E. coli C41(DE3), purified (Ni2+ agarose, thrombin cleavage, gel filtration)
Turning to B20, in assay [1], the Ka was determined as 1.3e+06 M⁻¹.
